The target of experiment [1] is T1, human LAG-3 on 293 cells overexpressing human LAG-3 (293-LAG-3) (human, UniProt P18627 23-525).
T1 construct: whole, on cells; also called LAG-3 on the cell surface
T1 sequence (looked up): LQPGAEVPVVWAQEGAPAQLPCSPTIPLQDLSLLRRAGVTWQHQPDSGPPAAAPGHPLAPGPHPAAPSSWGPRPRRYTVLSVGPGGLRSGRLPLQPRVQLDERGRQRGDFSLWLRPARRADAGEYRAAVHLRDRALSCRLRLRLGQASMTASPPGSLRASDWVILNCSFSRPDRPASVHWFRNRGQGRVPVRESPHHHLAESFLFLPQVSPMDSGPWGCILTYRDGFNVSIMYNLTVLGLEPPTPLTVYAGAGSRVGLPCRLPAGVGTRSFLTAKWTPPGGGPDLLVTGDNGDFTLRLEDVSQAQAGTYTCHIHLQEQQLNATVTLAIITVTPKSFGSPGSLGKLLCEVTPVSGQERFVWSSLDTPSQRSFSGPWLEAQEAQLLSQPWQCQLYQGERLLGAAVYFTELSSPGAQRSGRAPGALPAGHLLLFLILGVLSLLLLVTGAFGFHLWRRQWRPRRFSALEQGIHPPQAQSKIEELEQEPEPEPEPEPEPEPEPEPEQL
Kind of experiment: FACS on 293-LAG-3 cells, PE anti-human Fc detection. The protocol: (§1) 2) Detection: The cell suspension was centrifuged at 400 g on a centrifuge for 5 min to remove the cell culture medium. The serial dilutions of the bispecific antibody IGN-LP disclosed herein and anti-humanized Nb-Fc and anti-LAG-3 antibody ADI31853 as controls were added to the U-shaped plate at 100 μL each, and then the cells were resuspended and put onto the ice to stand for 30 min. The cell suspension was centrifuged at 400 g for 5 min to remove the supernatant, and the cells were washed with PBS to remove the unbound antibodies. The resulting cell suspension was centrifuged at 400 g for 5 min to remove PBS. 100 μL of the solution of PE-conjugated anti-human Fc antibody (Jackson Immuno Research) diluted at a ratio of 1:200 was added to each well, and the cells were incubated in the dark on the ice for 30 min. Then the cell suspension was centrifuged at 400 g for 5 min to remove the supernatant. The cells were washed with PBS once to remove the unbound PE-conjugated anti-human Fc antibody. Then the cells were resuspended with 100 μL of PBS, and the binding of the antibody to cells was assayed by FACS.

The target in experiment [2] is T2, human LAG-3-his (human, UniProt P18627 23-450).
T2 construct: Bought reagent; also called LAG-3 protein; not shown: His tag
T2 sequence (looked up): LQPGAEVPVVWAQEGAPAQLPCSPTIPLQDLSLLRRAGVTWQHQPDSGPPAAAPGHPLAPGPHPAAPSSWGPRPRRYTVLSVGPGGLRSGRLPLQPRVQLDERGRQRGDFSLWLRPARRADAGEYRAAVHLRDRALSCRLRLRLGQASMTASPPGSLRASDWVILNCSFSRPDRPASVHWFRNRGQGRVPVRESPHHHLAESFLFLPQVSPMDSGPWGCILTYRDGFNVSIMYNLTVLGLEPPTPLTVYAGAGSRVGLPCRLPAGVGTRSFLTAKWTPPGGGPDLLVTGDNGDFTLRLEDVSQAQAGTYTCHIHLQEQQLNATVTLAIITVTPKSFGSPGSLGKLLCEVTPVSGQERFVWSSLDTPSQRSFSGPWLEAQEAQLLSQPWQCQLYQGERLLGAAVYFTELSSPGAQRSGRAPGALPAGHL
Kind of experiment: ForteBio Octet BLI; antibody on AHQ tip, human LAG-3-His 100 nM in solution. As to the method:
(§2) The equilibrium dissociation constant (KD) for the binding of the prepared exemplary anti-LAG-3/PD-L1 bispecific antibody IGN-LP disclosed herein to LAG-3 and PD-L1 was determined by a kinetic binding assay using the Octet system manufactured by ForteBio. A ForteBio affinity assay was performed according to the method reported in the literature (Estep, P, et al., High throughput solution Based measurement of antibody-antigen affinity and epitope binning MAbs, 2013, 5(2): p. 270-278). Briefly:
(§3) The anti-human IgG Fc biosensor AHQ was immersed in each well containing the antibody solution at room temperature for 600 s to load the samples. The sensor was then washed in SD buffer until it returned to the baseline, and then immersed in a well containing 100 μL of the antigen solution to monitor the binding of the antibody to the antigen. The sensor was then transferred to a well containing 100 uL of the SD buffer to monitor the antibody dissociation (the operation procedures were set as: Baseline, Loading ˜1 nm, Baseline, Association and Dissociation, each running for a time depending on the binding and dissociation rates of the samples). The rotation speed was 400 rpm and the temperature was 30° C. […]
For orientation: BLI is a label-free optical method that tracks binding on a fibre tip over time.

Experiment [3] has as its target T2, human LAG-3-his. Briefly: ForteBio Octet BLI; antibody on AHQ tip, human LAG-3-His 100 nM in solution, monovalent. As to the method: as §2, §3
Experiment [4] has as its target T3, human PD-L1 on CHOS cells overexpressing PD-L1 (CHOS-PD-L1) (human, UniProt Q9NZQ7 19-290).
T3 construct: whole, on cells; also called CHO-PD-L1; PD-L1 on the cell surface
Kind of experiment: FACS on CHOS-PD-L1 cells, PE anti-human Fc detection. The protocol: as §1

The target of experiment [5] is T4, human PD-L1-his (human, UniProt Q9NZQ7 19-238).
T4 construct: Bought reagent; also called PD-L1 protein; not shown: His tag
T4 sequence (Q9NZQ7 19-238 limits assumed): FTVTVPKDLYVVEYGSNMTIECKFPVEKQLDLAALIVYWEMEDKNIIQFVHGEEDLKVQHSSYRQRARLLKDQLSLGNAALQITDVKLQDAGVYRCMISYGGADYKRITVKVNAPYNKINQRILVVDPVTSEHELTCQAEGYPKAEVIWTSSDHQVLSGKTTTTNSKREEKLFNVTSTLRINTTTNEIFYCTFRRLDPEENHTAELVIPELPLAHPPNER
Kind of experiment: ForteBio Octet BLI; antibody on AHQ tip, human PD-L1-His 100 nM in solution. The protocol: as §2, §3

The target of experiment [6] is T4, human PD-L1-his. Kind of experiment: ForteBio Octet BLI; antibody on AHQ tip, human PD-L1-His 100 nM in solution, monovalent. The protocol: as §2, §3

T3 sequence (Q9NZQ7 19-290): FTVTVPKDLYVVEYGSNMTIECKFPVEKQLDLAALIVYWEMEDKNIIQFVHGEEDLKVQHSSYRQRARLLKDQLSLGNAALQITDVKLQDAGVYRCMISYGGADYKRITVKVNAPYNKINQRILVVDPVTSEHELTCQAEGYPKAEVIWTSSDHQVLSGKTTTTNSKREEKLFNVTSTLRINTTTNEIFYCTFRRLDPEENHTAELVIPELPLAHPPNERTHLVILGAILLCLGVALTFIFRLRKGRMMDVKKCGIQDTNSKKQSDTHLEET

B1: anti-LAG-3 antibody ADI-31853 (antibody, human IgG1, kappa, L234A L235A, V domains shown)
VH: QLQLQESGPGLVKPSETLSLTCTVSGGSIYSESYYWGWIRQPPGKGLEWIGSIVYSGYTYYNPSLKSRVTISVDTSKNQFSLKLSSVTAADTAVYYCARVRTWDAAFDIWGQGTMVTVSS
VL: DIQMTQSPSSLSASVGDRVTITCQASQDISNYLNWYQQKPGKAPKLLIYDASNLETGVPSRFSGSGSGTDFTFTISSLQPEDIATYYCQQVLELPPWTFGGGTKVEIKR
notes: also called parental anti-LAG-3 antibody
A word on the EC50: it is the midpoint of the concentration-response curve. Lower therefore signals a more potent agent. By koff is commonly meant the first-order rate constant of dissociation. The low end stands for a long-lived complex, the high end for a short-lived complex. Usually kon stands for the second-order rate constant of association. Higher therefore signals faster complex formation. For orientation: Kd means the equilibrium constant for the complex coming apart. Higher therefore signals a looser complex. Consider B1, for which a half-maximal effect in experiment [1] (EC50) was put at 0.504 nM. In the experiment with human LAG-3-his [2], this molecule gave an off-rate (koff) of 0.0002 s⁻¹ and a kon of 128000 M⁻¹ s⁻¹. In the experiment with human LAG-3-his [3], this molecule showed a Kd of 1.56 nM.

B2: anti-PD-L1 humanized Nb-Fc antibody (Fc fusion)
chain: QVQLQESGGGLVQPGGSLRLSCAASAYTISRNSMGWFRQAPGKGLEGVAAIESDGSTSYSDSVKGRFTISLDNSKNTLYLEMNSLRAEDTAVYYCAAPKVGLGPRTALGHLAFMTLPALNYWGQGTLVTVSS
notes: The VHH is inferred from the words 'parent antibody' / 'parental anti-PD-L1 antibody'; also called anti-humanized Nb-Fc; parental anti-PD-L1 antibody; not shown: the antibody was obtained according to ZL201710657665.3
In experiment [4], B2 registered an EC50 of 1.2 nM. In the experiment with human PD-L1-his [5], the koff stood at 0.00356 s⁻¹ and the kon is 310000 M⁻¹ s⁻¹. For the same molecule, in the experiment with human PD-L1-his [6], the Kd is 11.5 nM.

The values above are taken from patent US20220112284A1 (Innovent, published 2022).
